Source: article PMC2943896, “Additional Serine/Threonine Phosphorylation Reduces Binding Affinity but Preserves Interface Topography of Substrate Proteins to the c-Cbl TKB Domain” (PLoS ONE, 2010)
Blank lines part the entries; values can stand above or below the binder they belong to. Where no end group is shown, it is not given here. [ ]: non-standard residue; d: D form. pY = N[C@@H](Cc1ccc(OP(=O)(O)O)cc1)C(=O)O; pT = C[C@@H](OP(=O)(O)O)[C@H](N)C(=O)O

Target: T1, c-Cbl TKB domain (UniProt P22681 25-351)
T1 construct: these are not the construct limits; source: cloning, expression and purification as described previously [14]; purified
T1 sequence: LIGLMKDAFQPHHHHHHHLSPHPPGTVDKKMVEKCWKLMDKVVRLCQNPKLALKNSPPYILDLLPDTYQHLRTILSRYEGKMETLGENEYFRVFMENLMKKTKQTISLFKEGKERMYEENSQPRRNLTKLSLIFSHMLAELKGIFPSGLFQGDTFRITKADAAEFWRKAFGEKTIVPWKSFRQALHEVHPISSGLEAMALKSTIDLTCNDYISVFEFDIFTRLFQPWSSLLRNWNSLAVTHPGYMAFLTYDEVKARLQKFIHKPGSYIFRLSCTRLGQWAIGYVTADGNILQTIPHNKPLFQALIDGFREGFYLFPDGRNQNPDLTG
Details: both partners purified

Kd: 3830 nM
B1: pTyr55/pThr56 Spry2 peptide (peptide)
peptide: IRNTNE[pY][pT]EGPT
notes: Sprouty2 (Spry2), human; also called ppSpry2; pYpT-Spry2; source: synthetic peptide, bought: GL Biochem

Kd: 310 nM
B2: Tyr55 phosphorylated Spry2 peptide (peptide)
peptide: IRNTNE[pY]TEGPT
notes: also called pSpry2; pSprouty2
